Each structure is given as a SMILES string.

The results in this text go back to EP0607103A2, “Somatostatin analogs containing chelating groups and their radiolabeled compositions” (SANDOZ LTD., priority 1993, dated 1994).

On the set-up of the data set: species or system rats. The settings on record: rat, in vivo. The procedure: The affinity of the CHELATES OF THE INVENTION for somatostatin receptors can also be shown by in vivo testing, according to standard test methods, e.g. as disclosed in GB-A-2, 225,579. For example the compound of Example 2 gives a tumor accumulation of 1.9 ± 0.4 % injected dose per g (n = 6) 4 hours after injection into rats bearing an exocrine pancreatic tumor.

`C[C@@H](O)[C@@H]1NC(=O)[C@H](CCCCN)NC(=O)[C@@H](Cc2c[nH]c3ccccc23)NC(=O)[C@H](Cc2ccccc2)NC(=O)[C@@H](NC(=O)[C@@H](Cc2ccccc2)NC(=S)Nc2ccc(CC(CNCCN)CNCCN)cc2)CSSC[C@@H](C(=O)N[C@H](CO)[C@@H](C)O)NC1=O` [Example 2, ^99mTc labelled compound of Example 1, metal not drawn] came in with a tissue uptake at 4 h of 1.9 ± 0.4 %ID/g.
